From patent US20260098270, “MULTIVALENT TRIDENT […] FOR MOLECULAR RECOGNITION, METHODS OF MAKING AND USES […]” (MCMASTER UNIVERSITY, published 2026)

Assays:
VEGF165 = VEGF165 (UniProt P15692-4 P15692-4:27-191); experiment: filter; conditions: chain copies: 2 (stated dimeric)
[1] = target: SARS-CoV-2 spike S1 subunit (SARS-CoV-2, UniProt P0DTC2 P0DTC2:14-685); experiment: filter
[2] = target: T1, Bovine serum albumin (BSA) (Bos taurus, UniProt P02769 P02769:25-607); experiment: filter; dot blot, no binding; conditions: tags: Sigma-Aldrich A7906; label: 5'-32P
T1 sequence (P02769 25-607, one chain of several): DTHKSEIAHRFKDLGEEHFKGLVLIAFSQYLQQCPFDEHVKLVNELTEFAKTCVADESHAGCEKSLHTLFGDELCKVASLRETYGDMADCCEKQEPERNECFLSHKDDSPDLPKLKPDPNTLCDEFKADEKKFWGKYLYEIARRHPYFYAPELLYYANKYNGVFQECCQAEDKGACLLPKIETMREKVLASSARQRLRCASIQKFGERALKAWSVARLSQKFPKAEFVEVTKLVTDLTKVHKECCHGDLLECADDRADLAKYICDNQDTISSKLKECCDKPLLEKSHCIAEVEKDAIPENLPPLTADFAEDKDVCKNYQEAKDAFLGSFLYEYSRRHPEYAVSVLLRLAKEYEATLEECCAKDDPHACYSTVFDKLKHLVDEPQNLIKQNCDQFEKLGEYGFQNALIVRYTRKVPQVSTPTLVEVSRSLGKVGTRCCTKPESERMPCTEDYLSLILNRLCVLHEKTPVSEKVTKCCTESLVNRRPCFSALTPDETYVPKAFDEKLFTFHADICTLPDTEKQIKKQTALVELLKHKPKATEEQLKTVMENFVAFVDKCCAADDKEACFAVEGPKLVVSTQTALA

SARS-CoV-1 spike protein = SARS-CoV-1 spike protein (SARS-CoV-1, UniProt P59594 P59594:14-1195); experiment: ELONA; conditions: tags: from Dr. Matthew Miller's lab, McMaster University; label: biotin
[3] = target: Spike RBD of seasonal coronavirus 229E (Human coronavirus 229E, UniProt P15423 P15423:293-435); experiment: ELONA; conditions: tags: from Dr. Matthew Miller's lab, McMaster University
Sequence of Spike RBD of seasonal coronavirus 229E (P15423 293-435, one chain of several): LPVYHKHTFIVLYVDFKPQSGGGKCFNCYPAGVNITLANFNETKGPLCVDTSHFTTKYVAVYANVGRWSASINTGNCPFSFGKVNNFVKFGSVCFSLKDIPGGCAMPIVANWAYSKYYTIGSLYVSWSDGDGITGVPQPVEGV

Amylase = target: T2, Amylase (UniProt P0DUB6 P0DUB6:16-511); experiment: ELONA; conditions: tags: Sigma-Aldrich A1031
T2 sequence: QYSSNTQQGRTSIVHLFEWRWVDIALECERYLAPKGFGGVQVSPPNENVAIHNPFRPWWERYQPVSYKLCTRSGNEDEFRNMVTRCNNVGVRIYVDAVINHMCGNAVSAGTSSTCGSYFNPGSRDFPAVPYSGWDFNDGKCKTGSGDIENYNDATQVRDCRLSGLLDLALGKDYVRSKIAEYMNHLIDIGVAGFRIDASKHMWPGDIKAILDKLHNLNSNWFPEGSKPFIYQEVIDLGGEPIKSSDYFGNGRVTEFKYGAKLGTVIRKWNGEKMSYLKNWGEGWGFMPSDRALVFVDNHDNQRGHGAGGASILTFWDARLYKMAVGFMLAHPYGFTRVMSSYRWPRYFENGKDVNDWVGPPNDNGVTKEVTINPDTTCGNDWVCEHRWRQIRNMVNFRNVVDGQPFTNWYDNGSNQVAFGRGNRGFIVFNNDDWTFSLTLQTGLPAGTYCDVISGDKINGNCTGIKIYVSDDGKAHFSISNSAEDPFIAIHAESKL

[4] = target: Spike RBD of seasonal coronavirus OC43 (Human coronavirus OC43, UniProt P36334 P36334:333-607); experiment: ELONA; conditions: tags: from Dr. Matthew Miller's lab, McMaster University
Sequence of Spike RBD of seasonal coronavirus OC43 (P36334 333-607, one chain of several): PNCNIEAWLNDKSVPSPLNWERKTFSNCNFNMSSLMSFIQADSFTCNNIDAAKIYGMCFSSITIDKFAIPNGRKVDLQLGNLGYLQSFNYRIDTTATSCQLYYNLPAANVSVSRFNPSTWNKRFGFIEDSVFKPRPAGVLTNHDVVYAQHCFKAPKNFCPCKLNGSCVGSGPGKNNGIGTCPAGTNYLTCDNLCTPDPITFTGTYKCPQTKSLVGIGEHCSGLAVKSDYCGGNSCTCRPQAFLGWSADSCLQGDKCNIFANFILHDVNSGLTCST

[5] = target: T1, Bovine serum albumin (BSA); experiment: ELONA; conditions: tags: Sigma-Aldrich A7906

Sequence of VEGF165 (P15692 other isoform, or with tags, fused parts or gaps): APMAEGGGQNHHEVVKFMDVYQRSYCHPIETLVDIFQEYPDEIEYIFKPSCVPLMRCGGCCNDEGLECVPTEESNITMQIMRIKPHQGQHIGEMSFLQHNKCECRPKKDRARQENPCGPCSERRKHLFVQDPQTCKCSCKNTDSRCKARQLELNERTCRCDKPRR

GCCCGTCTTCCAGACAAGAGTGCAGGGC (ssDNA) [H1A]
Kd (VEGF165): 21.3 nM

CGAAGCATCTCGTGTCACTCCGTAGGGTTTGGCTCCGGGCCTGGCGTCG (ssDNA) [MSA52T8]
Kd [1]: 6.5 nM

B1: TMSA52T8 (ssDNA)
DNA: CGAAGCATCTCGTGTCACTCCGTAGGGTTTGGCTCCGGGCCTGGCGTCGTTTTTCTCTCGC
modifications: three identical arms joined by Trebler, root TTTTT-Biotin
Kd [1]: 0.21 nM

GCCCGTCTTCCAGACAAGAGTGCAGGGCTTTTTCTCTCGC (ssDNA, three identical arms joined by Trebler, root TTTTT-Biotin) [Trimeric (trident) H1A]
Kd (VEGF165): 0.27 nM

B2: Trimeric (trident) RHA06 (ssDNA)
DNA: GGGTTTGGGTTGGGTTGGGTTTTTGGGTTTGGGTTGGGTTGGGAAAAATTTTTCTCTCGC
modifications: three identical arms (SEQ 12) joined by Trebler, root TTTTT-Biotin
binding result [2]: no binding

B3: TMSA52-B (ssDNA)
DNA: TTACGTCAAGGTGTCACTCCGTAGGGTTTGGCTCCGGGCCTGGCGTCGGTCGTCTCTCGCGAAGCATCTCTTTGGCGTGTTTTTTTTTTTTTTT
modifications: three identical arms joined by Trebler, root TTTTT-Biotin
binding result (SARS-CoV-1 spike protein): no binding | binding result [3]: no binding | binding result (Amylase): no binding | binding result [4]: no binding | binding result [5]: no binding
